# B1: CPEB3 Ribozyme (parent)
# chain: UAACAGGGGGCCACAGCAGAAGCGUUCACGUCGCAGCCCCUGUCAGAUUCUGGUGAAUCUGCGAAUUCUGCUGUAUAUCUC
# Variants of: B1
# Experiment: self-cleavage, relative activity (ratio to wild type); higher = more cleavage; in vitro, sequencing
# Method in brief: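 Relative activity compares each variant's cleaved/total read fraction with that of the unmutated ribozyme. To get these fractions, barcoded CPEB3 ribozyme libraries from rounds of error-prone PCR were transcribed with T7 RNA polymerase for 5 hours at 37°C and then given 15 min of DNase I treatment before EDTA was added. The RNAs were reverse transcribed with template switching and sequenced on Illumina, and DNA sequencing linked barcodes to variants. A minimum of 5 reads applied, and three batches were averaged.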
row,Variant,self-cleavage
1,A35C U69A,0.53
2,A35C U69G,0.62
3,A35C U69C,0.46
4,A35G C38A,1.21
5,A35G C38U,1.23
6,A35G C38G,0.96
7,A35C U41A,0.47
8,A35C U41C,0.72
9,A35C U41G,0.2
10,A35U U48C,0.32
11,A35U U48G,0.26
12,A35U U48A,0.32
13,A35G U80C,1.3
14,A35G U80G,1.37
15,A35G U80A,1.32
16,A35U G70C,0.34
17,A35U G70A,0.2
18,A35U U69C,0.23
19,A35U U69G,0.26
20,A35U U69A,0.26
21,A35G G63C,1.27
22,A35G G63U,1.2
23,A35G G63A,1.29
24,A35C C81U,0.93

row,Variant,self-cleavage
1,A35U U80C,0.63
2,A35U U80A,0.58
3,A35U U80G,0.65
4,A35C U43A,1.06
5,A35C U43C,0.35
6,G36C A47G,0.15
7,G36C A47C,0.13
8,A35U U66C,0.25
9,A35U U66A,0.34
10,A35U U66G,0.13
11,A35C U54C,0.8
12,A35G G73A,1.46
13,A35U C59U,0.29
14,A35U C59A,0.15
15,A35C A64G,0.3
16,A35C A64U,0.25
17,G36A U48C,0.19
18,G36A U51G,0.19
19,G36A U51A,0.4
20,G36A U51C,0.2
21,A35U U41C,0.5
22,A35U U41A,0.3
23,A35U U41G,0.32
24,A35U C50A,0.43

row,Variant,self-cleavage
1,G36A,0.29
2,G36C,0.31
3,G36A U78C,0.23
4,A35G U72A,1.22
5,A35G U72G,1.29
6,A35G U72C,1.26
7,G36A G55A,0.09
8,A35G,1.27
9,A35U,0.54
10,A35U U43A,0.71
11,A35U U43C,0.35
12,A35U U43G,0.15
13,A35U G52C,0.44
14,A35U G52U,0.72
15,A35U G52A,0.54
16,A35U C40U,0.37
17,A35U C40G,0.17
18,A35U C40A,0.09
19,A35C U67C,0.23
20,A35C U67A,0.23
21,A35C U67G,0.39
22,A35G A64G,1.28
23,A35G A64U,1.12
24,A35G A64C,0.98

row,Variant,self-cleavage
1,A35G G46C,1.12
2,A35G G46A,0.96
3,G36A C62A,0.41
4,G36A U69C,0.27
5,G36A U69A,0.32
6,A35G G55A,1.23
7,A35G G55C,1.46
8,A35C U48A,0.45
9,A35C U48C,0.47
10,G36A U54C,0.25
11,G36A U54A,0.31
12,A35U A75U,0.56
13,A35U A75C,0.71
14,A35U A75G,0.58
15,G36A A77G,0.17
16,G36A A77C,0.48
17,A35G U49C,1.05
18,A35G U49A,1.23
19,A35U U72A,0.31
20,A35U U72C,0.54
21,A35U U72G,0.54
22,A35U C44A,0.16
23,A35U C44U,0.16
24,A35G C68A,1.19

row,Variant,self-cleavage
1,A35C A77U,1.07
2,A35U A65G,0.26
3,A35U A65U,0.26
4,A35U A65C,0.45
5,A35C U60C,0.48
6,A35G U74G,1.27
7,A35G U74C,1.29
8,A35G U74A,1.33
9,A35G G61U,1.23
10,A35G G61A,1.11
11,A35G U54A,1.28
12,A35G U54G,1.32
13,A35G U54C,1.29
14,G36A C50A,0.25
15,A35G C40A,0.55
16,A35G C40U,1.23
17,A35G C40G,0.66
18,A35C C40A,0.6
19,A35U C37U,0.28
20,G36A U67C,0.13
21,A35G C50U,1.35
22,A35G C50A,1.1
23,G36A U58C,0.27
24,G36A U58G,0.19

row,Variant,self-cleavage
1,G36A U58A,0.13
2,A35U U67A,0.24
3,A35U U67C,0.21
4,A35U U67G,0.35
5,G36C A45U,0.14
6,G36C A45G,0.17
7,G36A U66C,0.33
8,A35U A45G,0.32
9,A35U A45U,0.32
10,A35U A45C,0.18
11,A35G C59U,1.2
12,A35C U74C,1.17
13,G36A U80C,0.34
14,G36A U80A,0.13
15,A35C A75U,0.97
16,A35C A75G,0.87
17,A35U U49A,0.39
18,A35U U49C,0.27
19,A35C G61A,0.41
20,A35U U78A,0.54
21,A35U U78C,0.52
22,A35C U80C,0.84
23,A35C U80A,0.89
24,A35U G46A,0.16

row,Variant,self-cleavage
1,A35U G46U,0.19
2,A35G G70U,0.78
3,A35G G70A,1.13
4,A35U C79U,0.64
5,A35G U48C,1.21
6,A35G U48A,1.14
7,A35G A47C,1.3
8,A35G A47G,1.26
9,A35G A47U,1.16
10,A35U U54C,0.5
11,A35U U54A,0.55
12,A35U U54G,0.58
13,G36C A77G,0.29
14,A35U U76C,0.52
15,A35U U76A,0.65
16,G36C A65G,0.13
17,A35G U69A,1.22
18,A35G U69G,1.33
19,A35G U69C,1.2
20,A35U G36A,0.19
21,A35U G36U,0.1
22,G36A C59U,0.31
23,A35G U58A,1.07
